Source: the supplement of paper PMC10724198
± gives the standard deviation of the averaged measurements.

What was measured:
Saccharomyces cerevisiae [1] = test: protein stability index of tFT-peptide fusion (C-terminal peptide) (PSI (0-1 scale)); higher = more stable (slower turnover); conditions: genetic background: wild type; temperature: 30 C
Saccharomyces cerevisiae [2] = test: as above
Method: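 MPS profiling in S. cerevisiae of the tFT-X12 degron library: putative degron peptides plus stable controls, 12 aa, fused to the C-terminus of a sfGFP-mCherry timer. Cells are FACS-sorted into 8 mCherry/sfGFP bins and deep-sequenced. PSI runs from 0 (unstable) to 1 (stable). Backgrounds are wild type, das1Δ and doa10Δ at 30 °C, and wild type, das1Δ, cdc34-1 and cdc53-1 at 37 °C; 2-3 technical replicates each.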

[3] = genetic background: cdc34-1, temperature: 37 C
[4] = genetic background: cdc53-1, temperature: 37 C
[5] = genetic background: das1 deletion, temperature: 30 C
[6] = genetic background: das1 deletion, temperature: 37 C
[7] = genetic background: doa10 deletion, temperature: 30 C
[8] = genetic background: wild type, temperature: 30 C
[9] = genetic background: wild type, temperature: 37 C
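Note: PSI is a weighted mean of sequencing reads over stability bins, variants kept only with over 10 reads, mCherry proximal and sfGFP distal, peptide attached via GGGS linker.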

Row | Sequence | protein stability index (Saccharomyces cerevisiae [1]) | protein stability index (Saccharomyces cerevisiae [2]; [3]) | protein stability index (Saccharomyces cerevisiae [2]; [4]) | protein stability index (Saccharomyces cerevisiae [2]; [5]) | protein stability index (Saccharomyces cerevisiae [2]; [6]) | protein stability index (Saccharomyces cerevisiae [2]; [7]) | protein stability index (Saccharomyces cerevisiae [2]; [8]) | protein stability index (Saccharomyces cerevisiae [2]; [9])
1 | TFLFPLPFLFFI | 0.0963 ± 0.016 | 0.0467 ± 0.0054 | 0.0387 ± 0.0025 | 0.102 ± 0.019 | 0.119 ± 0.03 | 0.29 ± 0.014 | 0.0685 ± 0.02 | 0.101 ± 0.0099
2 | LCFVCLWGYLGV | 0.479 ± 0.044 | 0.388 ± 0.023 | 0.471 ± 0.011 | 0.322 ± 0.034 | 0.528 ± 0.023 | 0.307 ± 0.0054 | 0.323 ± 0.022 | 0.4791 ± 0.0038
3 | FFCFFWLFHWFG | 0.443 ± 0.028 | 0.512 ± 0.012 | 0.566 ± 0.022 | 0.485 ± 0.016 | 0.5875 ± 0.0025 | 0.4643 ± 0.0022 | 0.451 ± 0.015 | 0.5356 ± 0.0044
4 | LIFLSISFISSL | 0.295 ± 0.05 | 0.1 ± 0.0059 | 0.245 ± 0.049 | 0.168 ± 0.036 | 0.316 ± 0.028 | 0.104 ± 0.043 | 0.15 ± 0.037 | 0.286 ± 0.0096
5 | IGLSIWSVVSAL | 0.392 ± 0.024 | 0.652 ± 0.042 | 0.689 ± 0.015 | 0.535 ± 0.016 | 0.6826 ± 0.0014 | 0.253 ± 0.0069 | 0.286 ± 0.033 | 0.5056 ± 0.0043
6 | WGFSVRFVLSVF | 0.12 ± 0.017 | 0.0576 ± 0.004 | 0.145 ± 0.03 | 0.124 ± 0.029 | 0.2407 ± 0.0016 | 0.05 ± 0.014 | 0.0463 ± 0.02 | 0.115 ± 0.024
7 | FFFLILFPLSYS | 0.49 ± 0.072 | 0.4518 ± 0.0042 | 0.526 ± 0.044 | 0.376 ± 0.028 | 0.5472 ± 0.0028 | 0.3517 ± 0.0033 | 0.372 ± 0.0098 | 0.513 ± 0.041
8 | DMWYLLWRVCYI | 0.48 ± 0.028 | 0.51263 ± 0.00047 | 0.549 ± 0.056 | 0.43 ± 0.022 | 0.582 ± 0.02 | 0.37 ± 0.02 | 0.409 ± 0.026 | 0.56 ± 0.01
9 | DFIVVIRFIQII | 0.232 ± 0.017 | 0.268 ± 0.012 | 0.376 ± 0.009 | 0.266 ± 0.023 | 0.3971 ± 0.0035 | 0.1447 ± 0.001 | 0.154 ± 0.027 | 0.235 ± 0.0043
10 | GVVCWVVVFGGW | 0.416 ± 0.035 | 0.307 ± 0.029 | 0.5008 ± 0.0019 | 0.281 ± 0.029 | 0.512 ± 0.0065 | 0.233 ± 0.0029 | 0.262 ± 0.034 | 0.442 ± 0.058
11 | FSCRRISFFLLV | 0.182 ± 0.05 | 0.525 ± 0.014 | 0.676 ± 0.039 | 0.536 ± 0.043 | 0.628 ± 0.017 | 0.179 ± 0.011 | 0.176 ± 0.012 | 0.26 ± 0.015
12 | WWVVVRGGWCLC | 0.204 ± 0.011 | 0.336 ± 0.043 | 0.416 ± 0.014 | 0.286 ± 0.032 | 0.495 ± 0.009 | 0.1219 ± 0.0001 | 0.16 ± 0.0021 | 0.205 ± 0.0045
13 | TVLGRDFALSVC | 0.4599 ± 0.00056 | 0.455 ± 0.0056 | 0.4916 ± 0.004 | 0.361 ± 0.046 | 0.543 ± 0.015 | 0.308 ± 0.0071 | 0.346 ± 0.023 | 0.501 ± 0.0061
14 | FCCFFPFLWRVF | 0.378 ± 0.018 | 0.593 ± 0.028 | 0.609 ± 0.034 | 0.541 ± 0.013 | 0.663 ± 0.017 | 0.317 ± 0.009 | 0.322 ± 0.016 | 0.455 ± 0.0052
15 | VVGVLLLYLNPF | 0.4677 ± 0.0038 | 0.431 ± 0.0048 | 0.5071 ± 0.0037 | 0.351 ± 0.025 | 0.572 ± 0.023 | 0.3188 ± 0.0024 | 0.336 ± 0.039 | 0.525 ± 0.0095
16 | EKIIVAVLFVVP | 0.437 ± 0.043 | 0.354 ± 0.032 | 0.482 ± 0.054 | 0.305 ± 0.02 | 0.504 ± 0.012 | 0.281 ± 0.0051 | 0.302 ± 0.02 | 0.439 ± 0.02
17 | FSYFFIFFYMVC | 0.238 ± 0.0085 | 0.207 ± 0.029 | 0.257 ± 0.042 | 0.234 ± 0.043 | 0.378 ± 0.038 | 0.152 ± 0.01 | 0.147 ± 0.035 | 0.228 ± 0.0028
18 | LPASLSLWPLLC | 0.1137 ± 0.0011 | 0.4736 ± 0.0023 | 0.604 ± 0.025 | 0.537 ± 0.019 | 0.668 ± 0.012 | 0.0836 ± 0.017 | 0.0983 ± 0.017 | 0.127 ± 0.015
19 | LHFHIYLIISPF | 0.294 ± 0.012 | 0.117 ± 0.0026 | 0.137 ± 0.022 | 0.2 ± 0.02 | 0.311 ± 0.0072 | 0.238 ± 0.011 | 0.186 ± 0.034 | 0.261 ± 0.01
20 | LFHPPSFSLRLF | 0.528 ± 0.25 | 0.681 ± 0.038 | 0.738 ± 0.025 | 0.678 ± 0.019 | 0.748 ± 0.023 | 0.301 ± 0.038 | 0.348 ± 0.025 | 0.5619 ± 0.0044
